Measured values reported in article PMC7837408 (Developmental cell, 2021).

Target: T1, mScarlet-V5-TurboID-Rab9a (human, UniProt P51151 1-201)
T1 sequence (looked up): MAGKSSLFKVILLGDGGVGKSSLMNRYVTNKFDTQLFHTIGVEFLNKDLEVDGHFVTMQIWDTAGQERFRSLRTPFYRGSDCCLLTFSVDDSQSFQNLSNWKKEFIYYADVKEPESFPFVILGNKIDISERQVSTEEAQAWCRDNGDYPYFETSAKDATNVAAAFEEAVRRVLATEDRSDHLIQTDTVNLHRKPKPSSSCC
Assay: proximity labelling

B1: Reticulon-3L (Rtn3L), endogenous (natural protein, human (endogenous in HeLa), UniProt O95197-2 1-1013, looked up)
chain: MAEPSAATQSHSISSSSFGAEPSAPGGGGSPGACPALGTKSCSSSCAEGLSSLCSDEPSSEIMTSSFLSSSEIHNTGLTILHGEKSHVLGSQPILAKEGKDHLDLLDMKKMEKPQGTSNNVSDSSVSLAAGVHCDRPSIPASFPEHPAFLSKKIGQVEEQIDKETKNPNGVSSREAKTALDADDRFTLLTAQKPPTEYSKVEGIYTYSLSPSKVSGDDVIEKDSPESPFEVIIDKAAFDKEFKDSYKESTDDFGSWSVHTDKESSEDISETNDKLFPLRNKEAGRYPMSALLSRQFSHTNAALEEVSRCVNDMHNFTNEILTWDLVPQVKQQTDKSSDCITKTTGLDMSEYNSEIPVVNLKTSTHQKTPVCSIDGSTPITKSTGDWAEASLQQENAITGKPVPDSLNSTKEFSIKGVQGNMQKQDDTLAELPGSPPEKCDSLGSGVATVKVVLPDDHLKDEMDWQSSALGEITEADSSGESDDTVIEDITADTSFENNKIQAEKPVSIPSAVVKTGEREIKEIPSCEREEKTSKNFEELVSDSELHQDQPDILGRSPASEAACSKVPDTNVSLEDVSEVAPEKPITTENPKLPSTVSPNVFNETEFSLNVTTSAYLESLHGKNVKHIDDSSPEDLIAAFTETRDKGIVDSERNAFKAISEKMTDFKTTPPVEVLHENESGGSEIKDIGSKYSEQSKETNGSEPLGVFPTQGTPVASLDLEQEQLTIKALKELGERQVEKSTSAQRDAELPSEEVLKQTFTFAPESWPQRSYDILERNVKNGSDLGISQKPITIRETTRVDAVSSLSKTELVKKHVLARLLTDFSVHDLIFWRDVKKTGFVFGTTLIMLLSLAAFSVISVVSYLILALLSVTISFRIYKSVIQAVQKSEEGHPFKAYLDVDITLSSEAFHNYMNAAMVHINRALKLIIRLFLVEDLVDSLKLAVFMWLMTYVGAVFNGITLLILAELLIFSVPIVYEKYKTQIDHYVGIARDQTKSIVEKIQAKLPGIAKKKAE
modifications: biotinylated by TurboID in cells (sites not given)
fold Rtn3L biotinylation, WT Rab9a against Rab9aΔFSV: 10 fold
